Columns and labels:
[1] = target: T1, Intercellular Adhesion Molecule-1 (ICAM-1) (human, UniProt P05362 28-532); assay: flow cytometry (FACS) on bone marrow plasma cells of patients with PC, PCL or AL
T1 construct: whole, on cells; Endogenous ICAM-1 on primary patient cells; also called CD54

[2] = target: T2, ICAM-1 (BI-AB epitope) on cells from multiple-myeloma-related disorders (Homo sapiens, UniProt P05362); assay: BI-AB epitope expression on bone marrow cells of patients with multiple-myeloma-related disorders by flow cytometry; type: binding; conditions: FACS
T2 construct: endogenous in cells; host or cells: primary bone marrow cells (plasma cells) from patients with plasmacytoma, plasma cell leukemia or light chain amyloidosis
T2 sequence (P05362 28-532): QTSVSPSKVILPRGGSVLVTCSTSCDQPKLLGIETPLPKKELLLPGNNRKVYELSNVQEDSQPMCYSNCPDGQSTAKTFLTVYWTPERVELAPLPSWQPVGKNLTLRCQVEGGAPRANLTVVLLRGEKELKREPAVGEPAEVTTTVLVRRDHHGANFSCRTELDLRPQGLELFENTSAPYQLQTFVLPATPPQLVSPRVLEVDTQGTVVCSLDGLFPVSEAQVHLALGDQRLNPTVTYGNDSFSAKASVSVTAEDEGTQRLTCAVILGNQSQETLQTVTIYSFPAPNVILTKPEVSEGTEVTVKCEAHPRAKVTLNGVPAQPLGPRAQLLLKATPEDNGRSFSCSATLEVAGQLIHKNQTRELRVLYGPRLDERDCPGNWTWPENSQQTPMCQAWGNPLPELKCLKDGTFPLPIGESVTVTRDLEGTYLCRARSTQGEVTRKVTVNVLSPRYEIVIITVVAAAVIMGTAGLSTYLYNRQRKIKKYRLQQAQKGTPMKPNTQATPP
Source text: FIG. 1: BI-AB epitope expression in a cohort of patients with plasma cell disorders, consecutively analysed at Lund University Hospital, Sweden. • Pat no (Patient number); M (male); F (female); Ig (immunoglobulin class of M-component); M comp (monoclonal Ig component in serum); Skel. destr (number of skeletal destruction as measured by X-ray); n/a (not available); MM-cells (cells from multiple-myeloma-related disorders counted as % of all nucleated cells in bone marrow smears); ISS (International Staging System of MM); T (number of different MM treatment regimes before BI-AB analysis); Diagnosis; AL (amyloid light chain amyloidosis); PCL (plasma cell leukemia); PC (plasmacytoma); Expression level (BI-AB epitope expression level measured by FACS on cells from multiple-myeloma-related disorders: +++ (very highly positive), ++ (highly positive), + (positive) or − (negative); Positive MM cells (BI-AB epitope positive cells from multiple-myeloma-related disorders as measured by FACS).
We evaluated expression of the BI-AB epitope on bone marrow cells in patients with multiple-myeloma-related disorders (plasmacytoma, plasma cell leukemia, and light chain amyloidosis) by flow cytometry (FIG. 1).
Cells from multiple-myeloma-related disorders were identified using fluorescent antibodies against the following surface antigens CD38, CD138, CD45 and CD56 according to European Myeloma Network guidelines on multiparametric flow cytometry in MM (Rawstron et al., 2008) and confirming monoclonal cells from multiple-myeloma-related disorders with intracellular staining of lambda and kappa light chains.

T1 sequence (P05362 28-532): as above

B1: BI-AB antibody (antibody, V domains shown)
VH: EVQLLESGGGLVQPGGSLRLSCAASGFTFSNAWMSWVRQAPGKGLEWVAFIWYDGSNKYYADSVKGRFTISRDNSKNTLYLQMNSLRAEDTAVYYCARYSGWYFDYWGQGTLVTVSS
VL: QSVLTQPPSASGTPGQRVTISCTGSSSNIGAGYDVHWYQQLPGTAPKLLIYDNNNRPSGVPDRFSGSKSGTSASLAISGLRSEDEADYYCQSYDSSLSAWLFGGGTKLTVLG
notes: It says the antibody was described previously in WO 2007/112110; also called exemplary antibody of the invention
binding result [1]: binds
BI-AB epitope positive cells from multiple-myeloma-related disorders ([2]; all patients with plasmacytoma, plasma cell leukemia or light chain amyloidosis): expressed the BI-AB epitope on most cells
median BI-AB epitope expression level relative to normal B cells from the same patients ([2]; cells from multiple-myeloma-related disorders vs normal B cells): 10 times higher
BI-AB epitope expression level on cells from multiple-myeloma-related disorders ([2]; patient bone marrow cells): very highly expressed

Reference: patent publication US20140242072A1, “ANTI-ICAM-1 ANTIBODIES TO TREAT MULTIPLE-MYELOMA RELATED DISORDERS” (BIOINVENT INTERNATIONAL AB, priority 2011, published 2014)
